{
  "source": "patent US8546083B2",
  "about": "“Molecular accessibility assay” (University of Vermont, priority 2007, dated 2013)",
  "molecules": {"B1": {"name": "EcoNei: Escherichia coli endonuclease VIII, purification known to have little activity (protein, UniProt P50465 2-263, looked up)", "Endonuclease 8": "PEGPEIRRAADNLEAAIKGKPLTDVWFAFPQLKPYQSQLIGQHVTHVETRGKALLTHFSNDLTLYSHNQLYGVWRVVDTGEEPQTTRVLRVKLQTADKTILLYSASDIEMLTPEQLTTHPFLQRVGPDVLDPNLTPEVVKERLLSPRFRNRQFAGLLLDQAFLAGLGNYLRVEILWQVGLTGNHKAKDLNAAQLDALAHALLEIPRFSYATRGQVDENKHHGALFRFKVFHRDGEPCERCGSIIEKTTLSSRPFYWCPGCQH"}, "B2": {"name": "EcoNth: Escherichia coli endonuclease III, purified recombinant enzyme preparation (protein, UniProt P0AB83 1-211, looked up)", "Endonuclease III": "MNKAKRLEILTRLRENNPHPTTELNFSSPFELLIAVLLSAQATDVSVNKATAKLYPVANTPAAMLELGVEGVKTYIKTIGLYNSKAENIIKTCRILLEQHNGEVPEDRAALEALPGVGRKTANVVLNTAFGWPTIAVDTHIFRVCNRTQFAPGKNVEQVEEKLLKVVPAEFKVDCHHWLILHGRYTCIARKPRCGSCIIEDLCEYKEKVDI"}, "B3": {"name": "EcoFpg: Escherichia coli formamidopyrimidine-DNA glycosylase, purified recombinant enzyme preparation (protein, UniProt P05523 2-269, looked up)", "Formamidopyrimidine-DNA …": "PELPEVETSRRGIEPHLVGATILHAVVRNGRLRWPVSEEIYRLSDQPVLSVQRRAKYLLLELPEGWIIIHLGMSGSLRILPEELPPEKHDHVDLVMSNGKVLRYTDPRRFGAWLWTKELEGHNVLTHLGPEPLSDDFNGEYLHQKCAKKKTAIKPWLMDNKLVVGVGNIYASESLFAAGIHPDRLASSLSLAECELLARVIKAVLLRSIEQGGTTLKDFLQSDGKPGYFAQELQVYGRKGEPCRVCGTPIVATKHAQRATFYCRQCQK"}},
  "key": {"[1]": {"test": "Fluorescence of DAPI binding to double stranded DNA", "settings": "50 nM double stranded DNA, 100 nM DAPI, 10 mM Tris-HCl pH 8.0, 50 mM NaCl, 5 minutes room temperature", "experimental": "(§1) For gel-based substrates, completed reactions were mixed with a dye-free SDS loading buffer (50 mM Tris-HCl (pH 6.8), 100 mM dithiothreitol, 4% SDS, 10% glycerol), heated to 90° C. for 5 minutes, separated by 12% SDS-PAGE, and visualized by PhosphorImager analysis (Bio-Rad Molecular Imager FX) (Bio-Rad Laboratories, Hercules, Calif.). For all other substrates, an equal volume of 200 nM DAPI in 10 mM Tris-HCl (pH 8.0) and 50 mM NaCl was added and incubated for 5 minutes at room temperature prior to fluorescence detection. Final concentrations of the fluorescence effecting molecules at the time of detection in these experiments were 100 nM DAPI, 50 nM substrate, and 25-800 nM enzyme.\n(§2) Fluorescence readings were made on a Synergy HT Multi-Detection Microplate Reader (BIO-TEK) using a tungsten-halogen lamp and 360/40 bandpass excitation filter in conjunction with a 460/40 emission filter. Corning Half Area, NBS treated (Nonbinding Surface), Black, 96-well Microplates plates (Corning #3686) were used for all DAPI-based experiments. The combination of enzymes, DNA, and DAPI were all shown to contribute linearly to changes in the overall fluorescence based on the range of concentrations used; there was therefore no need to correct for the inner filter effect.\nEach of the 4L, 5L, 5R, and N5R substrates, along with their non-damaged counterparts, were initially tested for their ability to associate with DAPI and thereby affect the detected fluorescence. […] In the absence of DNA, there was only a small increase in fluorescence from the addition of DAPI, as would be expected. The differences in fluorescence for each of the DAPI bound substrates are presumably due to both, sequence context and experimental variations in DNA concentration. For example, the 4L sequence is expected to have a lower total fluorescence due to the importance of the 3′ nucleotide following the 5′-AATT-3′ binding sequence in regards to fluorescence intensity (38). Due to the fact that the molecular accessibility assay is based on relative fluorescence, these differences are inconsequential."}, "4L substrate": {"tested_on": "4L substrate", "test": "DAPI molecular accessibility assay, active fraction determination, 4L substrate", "assay_type": "biochemical", "settings": "for activity (100*α): 100 nM 4L substrate, 50 mM sodium borohydride; for active fraction / calculated α value: 4L sequence; for active fraction: NaBH4 and NaCNBH3", "experimental": "(§3) Oligonucleotide substrates were purchased from Midland Certified Reagent Co. (Midland, Tex.) and were PAGE purified prior to use. All gel-based comparisons were performed with the following double stranded substrate: (35DHU) 5′-TET-tgtcaatagcaagnggagaagtcaatcgtgagtct-3′ (SEQ ID NO:1) where TET represents the fluorescent label 6-tetrachlorofluorescein and n=5,6-dihydrouracil (DHU). Molecular accessibility DAPI-based experiments were performed with the following double-stranded substrates: (4L) 5′-gccccgccaattnccgccgccgcc-3′ (SEQ ID NO:2), (5L) 5′-gccccgccaattcnccgccgccgcc-3′(SEQ ID NO:3), (5R) 5′-gccccgccgccccgccnaattccgccgccgcc-3′ (SEQ ID NO:4), and (N5R) 5′-gccccgccgccccgccncaattccgccgccgcc-3′ (SEQ ID NO:5) where n=either DHU for damaged substrates or cytosine for non-damaged controls. All complementary strands contained a G residue across from DHU (or across from the cytosine in controls—e.g. Watson-Crick base pairing) and were annealed in 50 mM Tris-HCl (pH 8.0), 50 mM NaCl by heating to 94° C. for 2 minutes and slowly cooling to 4° C. over the period of 1 hour in a Perkin Elmer DNA Thermal Cycler 480. In each case the ratio of damaged to complementary strand during annealing was 1:1.1. Note that the DAPI-based oligonucleotides all differ in location of the AT-rich region in relation to the damaged base.\n(§4) EcoNth, EcoFpg, EcoNei, and NEIL1 were incubated for 30 minutes at 37° C. with 100 nM DHU:G-containing substrates at final concentrations of 50, 100, 200, 400, 800, 1200, or 1600 nM, in the presence of either 50 or 100 mM sodium borohydride (NaBH4) or sodium cyanoborohydride (NaCNBH3), as described in the Figures. Borohydride compounds were dissolved fresh for each independent experiment (one substrate and series of enzyme dilutions) as 1.25× stocks in Milli-Q water. Reactions were initiated by simultaneous addition of enzyme and borohydride solution to annealed substrates utilizing separate multi-pipettes in a 96-well format to a final volume of 100 μL. Except for EcoFpg trapping with sodium cyanoborohydride, the final buffer for each reaction contained 10 mM Tris-HCl (pH 8.0), 60 mM Na^+, and either 50 mM BH4^− or CNBH3^−. In the former case, the final buffer contained 10 mM Tris-HCl (pH 8.0), 110 mM Na^+, and 100 mM CNBH3^−.\nas §1, §2\nGiven a sufficiently high concentration of trapping reagent, and a sufficiently long incubation time, the quantity of ES complex is related to the quantity of total enzyme added, ET, and total substrate added, ST, by the equation: ES=min(αET, βST) where α is the active enzyme fraction, P is the active substrate fraction (fraction cleavable), and min is the minimum function. […]"}, "5L substrate": {"tested_on": "5L substrate", "test": "DAPI molecular accessibility assay, active fraction determination, 5L substrate", "assay_type": "biochemical", "settings": "5L sequence, NaBH4 and NaCNBH3", "experimental": "(§5) Oligonucleotide substrates were purchased from Midland Certified Reagent Co. (Midland, Tex.) and were PAGE purified prior to use. All gel-based comparisons were performed with the following double stranded substrate: (35DHU) 5′-TET-tgtcaatagcaagnggagaagtcaatcgtgagtct-3′ (SEQ ID NO:1) where TET represents the fluorescent label 6-tetrachlorofluorescein and n=5,6-dihydrouracil (DHU). […]\nas §1\n(§6) Fluorescence readings were made on a Synergy HT Multi-Detection Microplate Reader (BIO-TEK) using a tungsten-halogen lamp and 360/40 bandpass excitation filter in conjunction with a 460/40 emission filter. […]"}, "N5R substrate": {"tested_on": "N5R substrate", "test": "DAPI molecular accessibility assay, active fraction determination, N5R substrate", "assay_type": "biochemical", "settings": "N5R sequence; for calculated α value: NaBH4 and NaCNBH3", "experimental": "as §3\nEcoNth, EcoFpg, EcoNei, and NEIL1 were incubated for 30 minutes at 37° C. with 100 nM DHU:G-containing substrates at final concentrations of 50, 100, 200, 400, 800, 1200, or 1600 nM, in the presence of either 50 or 100 mM sodium borohydride (NaBH4) or sodium cyanoborohydride (NaCNBH3), as described in the Figures. […]\nas §1\nas §2, with “Corning Half Area, NBS treated (Nonbinding Surface), Black, 96-well Microplates plates (Corning #3686) were used for all DAPI-based experiments.” left out, “effect. […]” for “effect.”"}, "35DHU substrate": {"tested_on": "35DHU substrate", "test": "Gel-based Schiff base trapping assay (SDS-PAGE, PhosphorImager), active fraction determination", "assay_type": "biochemical", "settings": "for α value (active enzyme fraction): 100 nM 35DHU; for active fraction: gel-based, from α values with NaBH4 and NaCNBH3", "experimental": "as §3, §4, §1\nGiven a sufficiently high concentration of trapping reagent, and a sufficiently long incubation time, the quantity of ES complex is related to the quantity of total enzyme added, ET, and total substrate added, ST, by the equation: ES=min(αET, βST) where α is the active enzyme fraction, P is the active substrate fraction (fraction cleavable), and min is the minimum function. Furthermore, holding ST constant while varying ET can be depicted graphically (FIG. 1A) where the rising slope is equivalent to α, the plateau is equivalent to ST*β, and the breakpoint is defined by the relation: ST=(α/β)ET. Therefore, by varying ET from below to well above the constant ST concentration, the active enzyme fraction can be determined by linear regression of all points falling below the ET breakpoint concentration. The decision to include or exclude a given point pre-breakpoint is simply made so as to minimize the root-mean squared deviation from both the pre-breakpoint regression and the post-breakpoint best-fit line with a slope of zero. […]"}, "5R substrate": {"tested_on": "5R substrate", "test": "DAPI molecular accessibility assay, active fraction determination, 5R substrate", "assay_type": "biochemical", "settings": "5R sequence, NaBH4 and NaCNBH3", "experimental": "as §5, §1, §6"}, "[2]": {"settings": "NaCNBH3 (50 mM EcoNth, 100 mM EcoFpg), 30 minutes 37° C."}, "[3]": {"settings": "EcoNth range stated jointly for 4L, 5L, 5R"}},
  "data": [
    {"molecule": "5′-gccccgccaattcnccgccgccgcc-3′ [5L]", "values": [
      {"measurement": "FI (Fluorescence Intensity)", "setting": "[1]", "value": "65.9 ± 2.6 x10^−3"}
    ]},
    {"molecule": "5′-gccccgccaattnccgccgccgcc-3′ [4L]", "values": [
      {"measurement": "FI (Fluorescence Intensity)", "setting": "[1]", "value": "55.2 ± 2.8 x10^−3"}
    ]},
    {"molecule": "5′-gccccgccgccccgccnaattccgccgccgcc-3′ [5R]", "values": [
      {"measurement": "FI (Fluorescence Intensity)", "setting": "[1]", "value": "69.5 ± 2.9 x10^−3"}
    ]},
    {"molecule": "5′-gccccgccgccccgccncaattccgccgccgcc-3′ [N5R]", "values": [
      {"measurement": "FI (Fluorescence Intensity)", "setting": "[1]", "value": "60.7 ± 3.0 x10^−3"}
    ]},
    {"molecule": "NEIL1: human ortholog of endonuclease VIII, recent purification with good activity", "values": [
      {"measurement": "activity (100*α)", "setting": "4L substrate", "value": "over 50%"}
    ]},
    {"molecule": "B1", "values": [
      {"measurement": "activity (100*α)", "setting": "4L substrate", "value": "less than 5%"}
    ]},
    {"molecule": "B2", "values": [
      {"measurement": "active fraction", "setting": "5L substrate", "value": "19-24%"},
      {"measurement": "active fraction", "setting": "N5R substrate; NaBH4 (first value, figure order)", "value": "approximately 12%"},
      {"measurement": "calculated α value", "setting": "N5R substrate", "value": "lower"},
      {"measurement": "active fraction", "setting": "N5R substrate; NaCNBH3 (second value, figure order)", "value": "~16", "unit": "%"},
      {"measurement": "α value (active enzyme fraction)", "setting": "35DHU substrate; 50 mM NaBH4, 30 minutes 37° C.", "value": 0.199},
      {"measurement": "α value (active enzyme fraction)", "setting": "35DHU substrate; [2]", "value": 0.206},
      {"measurement": "active fraction", "setting": "35DHU substrate", "value": "approximately 20%"},
      {"measurement": "active fraction", "setting": "4L substrate", "value": "19-24%"}
    ]},
    {"molecule": "B3", "values": [
      {"measurement": "calculated α value", "setting": "5L substrate; [3]", "value": "significantly lower"},
      {"measurement": "calculated α value", "setting": "N5R substrate", "value": "significantly lower"},
      {"measurement": "α value (active enzyme fraction)", "setting": "35DHU substrate; 50 mM NaBH4, 30 minutes 37° C.", "value": 0.121},
      {"measurement": "α value (active enzyme fraction)", "setting": "35DHU substrate; [2]", "value": 0.147},
      {"measurement": "active fraction", "setting": "35DHU substrate", "value": "approximately 13%"},
      {"measurement": "calculated α value", "setting": "4L substrate; 50 mM NaBH4", "value": 0.154},
      {"measurement": "calculated α value", "setting": "4L substrate; 100 mM NaCNBH3", "value": 0.136},
      {"measurement": "active fraction", "setting": "4L substrate", "value": "approximately 14%"},
      {"measurement": "active fraction", "setting": "5R substrate", "value": "~11", "unit": "%"},
      {"measurement": "calculated α value", "setting": "5R substrate; [3]", "value": "slightly lower"}
    ]}
  ]
}
